Measurements from PMC6120557.

Molecular target: chemokine receptor 4 (CXCR4), GFP‐tagged, on MDAMB231 X4 cells (human) (UniProt P61073)
Test: flow cytometry on cells

Chain of UniProt P61073 (P61073 whole entry): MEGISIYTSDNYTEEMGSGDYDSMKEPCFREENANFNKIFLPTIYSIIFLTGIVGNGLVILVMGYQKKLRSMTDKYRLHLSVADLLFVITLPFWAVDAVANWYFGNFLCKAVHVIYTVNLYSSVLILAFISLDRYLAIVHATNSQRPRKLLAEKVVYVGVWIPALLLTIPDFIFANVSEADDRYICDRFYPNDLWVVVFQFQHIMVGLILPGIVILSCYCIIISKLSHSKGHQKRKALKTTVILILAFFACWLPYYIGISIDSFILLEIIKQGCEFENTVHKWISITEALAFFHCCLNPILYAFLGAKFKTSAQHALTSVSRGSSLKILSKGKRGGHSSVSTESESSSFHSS

| Substance | Kd [nM] |
| --- | --- |
| Cy5‐S‐S‐Cy3‐AcTZ14011 (peptide) | > 500 |
| N3‐Cy5‐AcTZ14011 (peptide) | 222 |
